Test results from patent publication US20050260212A1 (PDL BIOPHARMA, published 2005).

Biological target: T1, human LFL2-Fc fusion protein (human, UniProt P01857-1 99-330 = IgG part, limits assumed)
T1 construct: domain: constant region of the human gamma 1 immunoglobulin heavy chain; In-frame fusion of the LFL2 extracellular domain with the human gamma 1 constant region; GenBank NP-570843.1 is printed for LFL2/LRRC15
Assay: SPR (BIAcore 3000), mAb immobilised on CM5, LFL2-Fc analyte, bivalent analyte model
Experimental: Kinetics measurements between human LFL2-Fc fusion protein and anti-LFL2 mAbs were performed using BIAcore 3000™ (BIAcore™, Sweden). Anti-LFL2 mAbs were immobilized with 100 RUs on Research-grade CM5 sensor chip by the BIAcore amine coupling reagents (N-ethyl-N′-dimethylaminopropylcarbodiimide, EDC; N-hydroxysuccinimide, NHS; and ethanolamine HCl, pH8.5). Assays were run at a flow rate of 30 ul/min at room temperature. Three-minute association phase of each LFL2-Fc was followed by ten-minute injection of running buffer (10 mM Hepes, 300 mM sodium chloride, 3 mM EDTA, 0.05% P-20, pH7.4) to monitor dissociation. The mAb surface was regenerated with 25 mM NaOH. […] Double referencing was applied in each analysis to eliminate background responses from reference surface and buffer only control. The affinity (KD) of binding was obtained by simultaneously fitting the association and dissociation phases of the sensorgram from the analyte concentration series using the bivalent analyte model from BIAevaluate software.

T1 sequence (P01857 other isoform, or with tags, fused parts or gaps limits assumed): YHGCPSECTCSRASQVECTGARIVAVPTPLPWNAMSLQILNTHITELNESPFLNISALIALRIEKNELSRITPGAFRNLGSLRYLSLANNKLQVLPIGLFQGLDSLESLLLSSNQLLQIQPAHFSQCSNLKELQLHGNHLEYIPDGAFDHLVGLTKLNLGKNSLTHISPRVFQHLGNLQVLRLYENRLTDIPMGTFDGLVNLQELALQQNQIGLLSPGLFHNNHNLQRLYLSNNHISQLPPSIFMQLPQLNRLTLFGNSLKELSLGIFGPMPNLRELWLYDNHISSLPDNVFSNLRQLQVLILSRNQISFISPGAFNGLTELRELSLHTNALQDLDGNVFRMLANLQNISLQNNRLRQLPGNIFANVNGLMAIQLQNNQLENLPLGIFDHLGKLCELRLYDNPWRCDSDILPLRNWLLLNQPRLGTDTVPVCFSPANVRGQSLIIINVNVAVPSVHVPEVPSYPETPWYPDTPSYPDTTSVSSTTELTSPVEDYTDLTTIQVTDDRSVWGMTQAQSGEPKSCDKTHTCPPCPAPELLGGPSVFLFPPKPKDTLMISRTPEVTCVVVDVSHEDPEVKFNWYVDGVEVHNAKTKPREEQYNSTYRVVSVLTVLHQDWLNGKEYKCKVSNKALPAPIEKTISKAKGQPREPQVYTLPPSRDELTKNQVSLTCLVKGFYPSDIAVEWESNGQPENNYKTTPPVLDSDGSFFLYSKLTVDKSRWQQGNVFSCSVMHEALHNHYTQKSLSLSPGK

B1: anti-LFL2 mAb M25 (antibody, V domains shown)
VH: QVQLQQSGAELMKPGASVKISCKATGYKFSSYWIEWVKQRPGHGLEWIGEILPGSDTTNYNEKFKDKATFTSDTSSNTAYMQLSSLTSEDSAVYYCARDRGNYRAWFGYWGQGTLVTVS
VL: DIQMTQTSSLSASLGDRVTISCRASQDISNYLNWYQQKPDGTVKFLIYYTSRLHSGVPSRFSGSGSGTDYSLTISYLEPEDIATYFCQQGEALPWTFGGGTKLEIKR
B1 gave a Kd of 1.2 nM.
